# Laboratory results from patent US20210155670A1, “SYSTEMS AND METHODS FOR THE PREPARATION OF PEPTIDE-MHC-I COMPLEXES WITH NATIVE GLYCAN MODIFICATIONS” (The Regents of the University of California, priority 2019, published 2021).
# Target: T cell receptor specific for HLA-A*02:01/NYESO, on Jurkat cells / NY-ESO-1 specific T cell line
# Assay: flow cytometry, PE tetramer staining; the negative cells are said to have lost the TCR
row,tetramer-negative population of cells [%],Substance
1,9,"CHO-derived PE-HLA-A*02:01 tetramer loaded with NY-ESO-1 peptide (single-chain complex, TAPBPR-exchanged) (peptide-MHC)"
2,9,conventionally refolded NYESO/HLA-A*02:01 tetramer (from UniProt P61769 21-119) (peptide-MHC)
